T1: human LAG-3 (human, UniProt P18627 23-525)
T1 construct: whole, on cells; also called LAG-3 antigen
T1 sequence (looked up): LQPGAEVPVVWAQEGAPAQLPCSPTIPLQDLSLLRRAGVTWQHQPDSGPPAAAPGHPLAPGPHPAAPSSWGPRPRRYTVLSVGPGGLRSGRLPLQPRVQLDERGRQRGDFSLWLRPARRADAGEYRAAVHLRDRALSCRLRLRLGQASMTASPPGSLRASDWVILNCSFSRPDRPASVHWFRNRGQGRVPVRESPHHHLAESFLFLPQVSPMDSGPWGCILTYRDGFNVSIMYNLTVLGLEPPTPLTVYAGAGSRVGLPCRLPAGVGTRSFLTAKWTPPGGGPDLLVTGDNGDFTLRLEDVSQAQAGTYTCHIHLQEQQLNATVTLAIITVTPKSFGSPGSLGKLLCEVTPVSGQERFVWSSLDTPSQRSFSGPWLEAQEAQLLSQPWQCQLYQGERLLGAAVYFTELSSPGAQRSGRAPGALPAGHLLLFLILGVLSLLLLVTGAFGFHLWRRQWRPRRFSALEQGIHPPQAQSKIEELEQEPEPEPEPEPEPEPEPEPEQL

B1: bispecific antibody LAG3-G15-LC (bispecific antibody, human IgG4 S228P, kappa)
heavy: not shown
light: EIVLTQSPATLSLSPGERATLSCRASENVGTYISWYQQKPGQAPRLLIYGASNRYTGIPARFSGSGSGTDFTLTISSLEPEDFAVYYCGESYGHLYTFGGGTKVEIKRTVAAPSVFIFPPSDEQLKSGTASVVCLLNNFYPREAKVQWKVDNALQSGNSQESVTEQDSKDSTYSLSSTLTLSKADYEKHKVYACEVTHQGLSSPVTKSFNRGECGGGGSGGGGSGGGGSEVQLVESGGGLVQPGGSLRLSCAASGYTVSSYCMGWFRQAPGKGREGVSAIDSDGSVSYADSVKGRFTISKDNSKNTLYLQMNSLRAEDTAVYFCAADLCWVDQDQGEYNTWGQGTLVTVSS
notes: Two identical fused chains and two identical natural chains; also called L5 + H0
B2: bispecific antibody LAG3-G9-LC (bispecific antibody, human IgG4 S228P, kappa)
heavy: not shown
light: EIVLTQSPATLSLSPGERATLSCRASENVGTYISWYQQKPGQAPRLLIYGASNRYTGIPARFSGSGSGTDFTLTISSLEPEDFAVYYCGESYGHLYTFGGGTKVEIKRTVAAPSVFIFPPSDEQLKSGTASVVCLLNNFYPREAKVQWKVDNALQSGNSQESVTEQDSKDSTYSLSSTLTLSKADYEKHKVYACEVTHQGLSSPVTKSFNRGECGGGGSGGGSEVQLVESGGGLVQPGGSLRLSCAASGYTVSSYCMGWFRQAPGKGREGVSAIDSDGSVSYADSVKGRFTISKDNSKNTLYLQMNSLRAEDTAVYFCAADLCWVDQDQGEYNTWGQGTLVTVSS
notes: Two identical fused chains and two identical natural chains; also called L3 + H0
B3: anti-CD47 monoclonal antibody (mAb) (antibody, human IgG4 S228P, kappa, V domains shown)
VH: EVQLVQSGAEVKKPGSSVKVSCKASGYSFTHHWIHWVRQAPGQGLEWMGMIDASDSETRLSQKFKDRVTITADKSTSTAYMELSSLRSEDTAVYYCARLGRYYFDYWGQGTTVTVSS
VL: EIVLTQSPATLSLSPGERATLSCRASENVGTYISWYQQKPGQAPRLLIYGASNRYTGIPARFSGSGSGTDFTLTISSLEPEDFAVYYCGESYGHLYTFGGGTKVEIKR
notes: Full-length antibody composed of heavy chain H0 and light chain L0; also called anti-CD47 mAb; anti-CD47 antibody control
B4: bispecific antibody LAG3-E-HC (bispecific antibody, human IgG4 S228P, kappa)
heavy: not shown
light: EIVLTQSPATLSLSPGERATLSCRASENVGTYISWYQQKPGQAPRLLIYGASNRYTGIPARFSGSGSGTDFTLTISSLEPEDFAVYYCGESYGHLYTFGGGTKVEIKRTVAAPSVFIFPPSDEQLKSGTASVVCLLNNFYPREAKVQWKVDNALQSGNSQESVTEQDSKDSTYSLSSTLTLSKADYEKHKVYACEVTHQGLSSPVTKSFNRGEC
notes: Two identical fused chains and two identical natural chains; also called H1 + L0
B5: bispecific antibody LAG3-G15-HN (bispecific antibody, human IgG4 S228P, kappa)
heavy: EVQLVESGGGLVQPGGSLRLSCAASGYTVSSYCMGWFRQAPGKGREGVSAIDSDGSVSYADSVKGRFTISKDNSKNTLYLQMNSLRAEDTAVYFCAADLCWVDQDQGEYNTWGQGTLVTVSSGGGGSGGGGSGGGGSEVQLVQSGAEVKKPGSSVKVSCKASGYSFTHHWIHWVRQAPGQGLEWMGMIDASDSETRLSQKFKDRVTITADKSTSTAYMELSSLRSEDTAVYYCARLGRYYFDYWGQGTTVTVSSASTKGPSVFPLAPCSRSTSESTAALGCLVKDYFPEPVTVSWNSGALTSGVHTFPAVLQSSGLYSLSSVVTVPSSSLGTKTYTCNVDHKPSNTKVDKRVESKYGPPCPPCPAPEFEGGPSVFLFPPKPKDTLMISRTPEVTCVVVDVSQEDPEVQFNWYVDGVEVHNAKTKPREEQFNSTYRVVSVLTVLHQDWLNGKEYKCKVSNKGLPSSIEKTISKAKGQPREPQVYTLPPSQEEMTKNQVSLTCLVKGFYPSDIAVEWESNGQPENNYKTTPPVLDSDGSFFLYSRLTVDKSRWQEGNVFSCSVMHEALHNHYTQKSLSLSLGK
light: B4 light
notes: Two identical fused chains and two identical natural chains; also called H6 + L0
B6: bispecific antibody LAG3-G15-LN (bispecific antibody, human IgG4 S228P, kappa)
heavy: not shown
light: EVQLVESGGGLVQPGGSLRLSCAASGYTVSSYCMGWFRQAPGKGREGVSAIDSDGSVSYADSVKGRFTISKDNSKNTLYLQMNSLRAEDTAVYFCAADLCWVDQDQGEYNTWGQGTLVTVSSGGGGSGGGGSGGGGSEIVLTQSPATLSLSPGERATLSCRASENVGTYISWYQQKPGQAPRLLIYGASNRYTGIPARFSGSGSGTDFTLTISSLEPEDFAVYYCGESYGHLYTFGGGTKVEIKRTVAAPSVFIFPPSDEQLKSGTASVVCLLNNFYPREAKVQWKVDNALQSGNSQESVTEQDSKDSTYSLSSTLTLSKADYEKHKVYACEVTHQGLSSPVTKSFNRGEC
notes: Two identical fused chains and two identical natural chains; also called L6 + H0
B7: bispecific antibody LAG3-G9-HC (bispecific antibody, human IgG4 S228P, kappa)
heavy: not shown
light: B4 light
notes: Two identical fused chains and two identical natural chains; also called LAGS-G9-HC; H3 + L0
B8: bispecific antibody LAG3-G15-HC (bispecific antibody, human IgG4 S228P, kappa)
heavy: not shown
light: B4 light
notes: Two identical fused chains and two identical natural chains; also called H5 + L0
B9: bispecific antibody LAG3-E-HN (bispecific antibody, human IgG4 S228P, kappa)
heavy: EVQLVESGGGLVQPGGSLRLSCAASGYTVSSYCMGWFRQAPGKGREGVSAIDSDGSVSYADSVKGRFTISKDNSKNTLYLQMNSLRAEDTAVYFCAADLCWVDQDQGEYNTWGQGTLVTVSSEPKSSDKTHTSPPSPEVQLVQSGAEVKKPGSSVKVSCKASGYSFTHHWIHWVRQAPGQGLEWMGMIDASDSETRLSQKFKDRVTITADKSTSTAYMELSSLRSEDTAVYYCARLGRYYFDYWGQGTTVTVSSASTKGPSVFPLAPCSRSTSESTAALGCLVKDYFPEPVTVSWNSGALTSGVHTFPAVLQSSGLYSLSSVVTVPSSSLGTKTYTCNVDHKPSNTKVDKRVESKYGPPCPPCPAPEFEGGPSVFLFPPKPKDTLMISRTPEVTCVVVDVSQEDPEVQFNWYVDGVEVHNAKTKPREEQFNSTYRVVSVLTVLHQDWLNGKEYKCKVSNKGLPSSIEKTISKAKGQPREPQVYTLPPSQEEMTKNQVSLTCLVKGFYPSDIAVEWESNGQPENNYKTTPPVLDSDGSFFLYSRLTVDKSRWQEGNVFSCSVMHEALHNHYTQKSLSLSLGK
light: B4 light
notes: Two identical fused chains and two identical natural chains; also called H2 + L0
B10: bispecific antibody LAG3-G9-HN (bispecific antibody, human IgG4 S228P, kappa)
heavy: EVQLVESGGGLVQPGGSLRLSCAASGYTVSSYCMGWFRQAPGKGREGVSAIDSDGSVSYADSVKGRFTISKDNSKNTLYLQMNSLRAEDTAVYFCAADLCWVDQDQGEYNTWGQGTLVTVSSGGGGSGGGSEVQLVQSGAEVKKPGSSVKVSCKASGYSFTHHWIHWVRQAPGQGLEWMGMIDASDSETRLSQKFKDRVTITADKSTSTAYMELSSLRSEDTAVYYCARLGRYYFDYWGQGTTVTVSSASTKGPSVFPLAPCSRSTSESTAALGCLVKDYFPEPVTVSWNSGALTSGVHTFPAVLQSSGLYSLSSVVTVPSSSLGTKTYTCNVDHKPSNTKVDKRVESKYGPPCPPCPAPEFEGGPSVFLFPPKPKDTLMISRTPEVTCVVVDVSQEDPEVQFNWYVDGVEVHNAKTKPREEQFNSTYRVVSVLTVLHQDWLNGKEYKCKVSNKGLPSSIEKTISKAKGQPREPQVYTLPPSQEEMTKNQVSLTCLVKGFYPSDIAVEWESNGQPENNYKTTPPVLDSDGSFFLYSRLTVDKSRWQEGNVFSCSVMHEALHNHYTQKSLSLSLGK
light: B4 light
notes: Two identical fused chains and two identical natural chains; also called H4 + L0
B11: bispecific antibody LAG3-E-LN (bispecific antibody, human IgG4 S228P, kappa)
heavy: not shown
light: EVQLVESGGGLVQPGGSLRLSCAASGYTVSSYCMGWFRQAPGKGREGVSAIDSDGSVSYADSVKGRFTISKDNSKNTLYLQMNSLRAEDTAVYFCAADLCWVDQDQGEYNTWGQGTLVTVSSEPKSSDKTHTSPPSPEIVLTQSPATLSLSPGERATLSCRASENVGTYISWYQQKPGQAPRLLIYGASNRYTGIPARFSGSGSGTDFTLTISSLEPEDFAVYYCGESYGHLYTFGGGTKVEIKRTVAAPSVFIFPPSDEQLKSGTASVVCLLNNFYPREAKVQWKVDNALQSGNSQESVTEQDSKDSTYSLSSTLTLSKADYEKHKVYACEVTHQGLSSPVTKSFNRGEC
notes: Two identical fused chains and two identical natural chains; also called L2 + H0
B12: bispecific antibody LAG3-G9-LN (bispecific antibody, human IgG4 S228P, kappa)
heavy: not shown
light: EVQLVESGGGLVQPGGSLRLSCAASGYTVSSYCMGWFRQAPGKGREGVSAIDSDGSVSYADSVKGRFTISKDNSKNTLYLQMNSLRAEDTAVYFCAADLCWVDQDQGEYNTWGQGTLVTVSSGGGGSGGGSEIVLTQSPATLSLSPGERATLSCRASENVGTYISWYQQKPGQAPRLLIYGASNRYTGIPARFSGSGSGTDFTLTISSLEPEDFAVYYCGESYGHLYTFGGGTKVEIKRTVAAPSVFIFPPSDEQLKSGTASVVCLLNNFYPREAKVQWKVDNALQSGNSQESVTEQDSKDSTYSLSSTLTLSKADYEKHKVYACEVTHQGLSSPVTKSFNRGEC
notes: Two identical fused chains and two identical natural chains; also called L4 + H0
B13: bispecific antibody LAG3-E-LC (bispecific antibody, human IgG4 S228P, kappa)
heavy: not shown
light: EIVLTQSPATLSLSPGERATLSCRASENVGTYISWYQQKPGQAPRLLIYGASNRYTGIPARFSGSGSGTDFTLTISSLEPEDFAVYYCGESYGHLYTFGGGTKVEIKRTVAAPSVFIFPPSDEQLKSGTASVVCLLNNFYPREAKVQWKVDNALQSGNSQESVTEQDSKDSTYSLSSTLTLSKADYEKHKVYACEVTHQGLSSPVTKSFNRGECEPKSSDKTHTSPPSPEVQLVESGGGLVQPGGSLRLSCAASGYTVSSYCMGWFRQAPGKGREGVSAIDSDGSVSYADSVKGRFTISKDNSKNTLYLQMNSLRAEDTAVYFCAADLCWVDQDQGEYNTWGQGTLVTVSS
notes: Two identical fused chains and two identical natural chains; also called L1 + H0

molecular target: T2, human CD47 (human, UniProt Q08722 19-323); assay: flow cytometry on CHO-K1 cells expressing human CD47
T2 construct: whole, on cells; also called CD47 antigen; integrin associated protein
Description: (§1) For the constructed series of bispecific antibodies, the affinity of these samples with antigens was measured by using a flow cytometer. […] Then, an antibody-antigen binding curve was generated based on the geometric mean, raw data of four parameters was plotted by using the […] Prism V6.02 software, and a best fitted value program was compiled to analyze EC₅₀.

T2 sequence (Q08722 19-323): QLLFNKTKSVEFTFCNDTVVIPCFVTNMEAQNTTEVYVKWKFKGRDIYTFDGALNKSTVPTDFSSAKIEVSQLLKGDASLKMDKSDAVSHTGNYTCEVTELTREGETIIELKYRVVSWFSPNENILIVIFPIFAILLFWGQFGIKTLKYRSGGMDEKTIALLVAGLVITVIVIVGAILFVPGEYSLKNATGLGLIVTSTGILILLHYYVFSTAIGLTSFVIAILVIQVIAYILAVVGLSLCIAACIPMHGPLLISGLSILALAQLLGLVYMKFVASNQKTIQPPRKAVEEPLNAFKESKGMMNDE

Binding result, binds:
B1, B2, B3

molecular target: T1, human LAG-3; assay: flow cytometry on CHO-K1 cells expressing human LAG-3
Description: as §1

Binding result, binds:
B4, B5, B1, B6, B7, B8, B9, B10, B11, B12, B13, B2

Source: patent US20220267436A1 (NANJING GENSCRIPT BIOTECH, published 2022)
